Source: the supplement of paper PMC10567573

B1: MYOZ1 (parent)
chain: FSDSSMDHFQKFLPTVGGQLGTAG

Variants of: B1
Test: protein stability index of a GFP-peptide fusion (GPS, HEK-293T) (PSI 1-6); higher = more stable
Conditions: c terminus: a fixed tail appended
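Also: lentivirally expressed fusions sorted by FACS into six bins by GFP to DsRed ratio, PSI derived from sequencing read proportions per bin multiplied by bin number.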

Point of comparison: FSDSSMDHFQKFMPTVGGQLGTAG [L13M], protein stability index 3.29. Against it:
- FSDSSMDHGQKFLPTVGGQLGTAG [F9G] — higher, 4.56
- FSDSSMDHYQKFLPTVGGQLGTAG [F9Y] — lower, 2.78
- FSDSSMDHIQKFLPTVGGQLGTAG [F9I] — lower, 2.46
- FSDSSMDHSQKFLPTVGGQLGTAG [F9S] — higher, 3.61
- FSDSSMDHCQKFLPTVGGQLGTAG [F9C] — lower, 2.92
- FSDSSMDHVQKFLPTVGGQLGTAG [F9V] — higher, 3.71
- FSDSSMDHAQKFLPTVGGQLGTAG [F9A] — lower, 2.71
- FSDSSMDHQQKFLPTVGGQLGTAG [F9Q] — higher, 3.88
- FSDSSMDHRQKFLPTVGGQLGTAG [F9R] — lower, 2.6
- FSDSSMDHDQKFLPTVGGQLGTAG [F9D] — higher, 4.52
- FSDSSMDHFQKQLPTVGGQLGTAG [F12Q] — lower, 3.04
- FSDSSMDHFQKWLPTVGGQLGTAG [F12W] — lower, 1.85
- FSDSSMDHFQKTLPTVGGQLGTAG [F12T] — lower, 3.16
- FSDSSMDHFQKYLPTVGGQLGTAG [F12Y] — lower, 2.77
- FSDSSMDHFQKMLPTVGGQLGTAG [F12M] — lower, 3.11
- FSDSSMDHFQKSLPTVGGQLGTAG [F12S] — higher, 3.67
- FSDSSMDHFQKRLPTVGGQLGTAG [F12R] — higher, 3.5
- FSDSSMDHFQKKLPTVGGQLGTAG [F12K] — higher, 3.67
- FSDSSMDHFQKALPTVGGQLGTAG [F12A] — higher, 3.98
- FSDSSMDHFQKCLPTVGGQLGTAG [F12C] — lower, 2.92
- FSDSSMDHFQKELPTVGGQLGTAG [F12E] — higher, 4.6
- FSDSSMDHFQKLLPTVGGQLGTAG [F12L] — lower, 2.88
- FSDSSMDHFQKNLPTVGGQLGTAG [F12N] — higher, 3.68
- FSDSSMDHFQKHLPTVGGQLGTAG [F12H] — lower, 3.28
- FSDSSMDHFQKGLPTVGGQLGTAG [F12G] — lower, 3.15
- FSDSSMDHFQKPLPTVGGQLGTAG [F12P] — higher, 3.61
- FSDSSMDHFQKDLPTVGGQLGTAG [F12D] — higher, 4.08
- FSDSSMDHFQKILPTVGGQLGTAG [F12I] — lower, 2.08
- FSDSSPDHFQKFLPTVGGQLGTAG [M6P] — lower, 2.56
- FSDSSTDHFQKFLPTVGGQLGTAG [M6T] — lower, 2.58
- FSDSSDDHFQKFLPTVGGQLGTAG [M6D] — lower, 3.22
- FSDSSIDHFQKFLPTVGGQLGTAG [M6I] — lower, 2.04
- FSDSSWDHFQKFLPTVGGQLGTAG [M6W] — lower, 1.44
- FSDSSLDHFQKFLPTVGGQLGTAG [M6L] — lower, 2.29
- FSDSSCDHFQKFLPTVGGQLGTAG [M6C] — lower, 1.96
- FSDSSRDHFQKFLPTVGGQLGTAG [M6R] — lower, 2.66
- FSDSSHDHFQKFLPTVGGQLGTAG [M6H] — lower, 2.25
- FSDSSVDHFQKFLPTVGGQLGTAG [M6V] — lower, 2.23
- FSDSSKDHFQKFLPTVGGQLGTAG [M6K] — lower, 3.08
- FSDSSGDHFQKFLPTVGGQLGTAG [M6G] — lower, 2.86
- FSDSSSDHFQKFLPTVGGQLGTAG [M6S] — lower, 2.26
- FSDSSNDHFQKFLPTVGGQLGTAG [M6N] — lower, 2.78
- FSDSSQDHFQKFLPTVGGQLGTAG [M6Q] — lower, 3
- FSDSSFDHFQKFLPTVGGQLGTAG [M6F] — higher, 3.55
- FSDSSEDHFQKFLPTVGGQLGTAG [M6E] — lower, 3
- FSDSSYDHFQKFLPTVGGQLGTAG [M6Y] — lower, 2.32
- FSDSSADHFQKFLPTVGGQLGTAG [M6A] — lower, 2.65
- FSTSSMDHFQKFLPTVGGQLGTAG [D3T] — lower, 1.96
- FSYSSMDHFQKFLPTVGGQLGTAG [D3Y] — lower, 2.02
- FSVSSMDHFQKFLPTVGGQLGTAG [D3V] — lower, 1.96
- FSSSSMDHFQKFLPTVGGQLGTAG [D3S] — lower, 1.97
- FSRSSMDHFQKFLPTVGGQLGTAG [D3R] — lower, 1.49
- FSWSSMDHFQKFLPTVGGQLGTAG [D3W] — lower, 2.06
- FSDSSMDHFQKFLDTVGGQLGTAG [P14D] — lower, 1.61
- FSDSSMDHFQKFLFTVGGQLGTAG [P14F] — lower, 2.83
- FSDSSMDHFQKFLGTVGGQLGTAG [P14G] — lower, 1.58
- FSDSSMDHFQKFLCTVGGQLGTAG [P14C] — lower, 1.41
- FSDSSMDHFQKFWPTVGGQLGTAG [L13W] — lower, 1.82
- FSDSSMDHFQKFTPTVGGQLGTAG [L13T] — higher, 3.53
- FSDSSMDHFQKFHPTVGGQLGTAG [L13H] — the same, 3.29
- FSDSSMDHFQKFGPTVGGQLGTAG [L13G] — higher, 3.44
- FSDSSMDHFQKFAPTVGGQLGTAG [L13A] — lower, 2.52
- FSDSSMDHFQKFSPTVGGQLGTAG [L13S] — lower, 2.76
- FSDSSMDHFQKFRPTVGGQLGTAG [L13R] — lower, 2.92
- FSDSSMDHFQKFEPTVGGQLGTAG [L13E] — higher, 4.42
- FSDSSMDHFQKFPPTVGGQLGTAG [L13P] — lower, 3.06
- FSDSSMDHFQKFVPTVGGQLGTAG [L13V] — lower, 2.97
- FSDSSMDHFQKFFPTVGGQLGTAG [L13F] — lower, 3.09
- FSDSSMDHFQKFCPTVGGQLGTAG [L13C] — lower, 2.75
- FSDSSMDHFQKFNPTVGGQLGTAG [L13N] — lower, 3.1
- FSDSSMDHFQKFQPTVGGQLGTAG [L13Q] — lower, 3.18
- FSDSSMDHFQKFKPTVGGQLGTAG [L13K] — higher, 3.53
- FSDSSMDHFQKFIPTVGGQLGTAG [L13I] — lower, 1.9
- FSDSSMDHFQKFDPTVGGQLGTAG [L13D] — higher, 3.44
- FSDSSMDHFQKFYPTVGGQLGTAG [L13Y] — lower, 2.76
- FSDNSMDHFQKFLPTVGGQLGTAG [S4N] — lower, 2.32
- FSDFSMDHFQKFLPTVGGQLGTAG [S4F] — lower, 2.87
- FSDVSMDHFQKFLPTVGGQLGTAG [S4V] — lower, 3.14
- FSDTSMDHFQKFLPTVGGQLGTAG [S4T] — lower, 2.65
- FSDGSMDHFQKFLPTVGGQLGTAG [S4G] — lower, 2.15
- FSDISMDHFQKFLPTVGGQLGTAG [S4I] — higher, 3.59
- FSDASMDHFQKFLPTVGGQLGTAG [S4A] — lower, 2.09
- FSDMSMDHFQKFLPTVGGQLGTAG [S4M] — lower, 1.79
- FSDKSMDHFQKFLPTVGGQLGTAG [S4K] — lower, 2.12
- FSDQSMDHFQKFLPTVGGQLGTAG [S4Q] — lower, 1.92
- FSDRSMDHFQKFLPTVGGQLGTAG [S4R] — lower, 2.51
- FSDDSMDHFQKFLPTVGGQLGTAG [S4D] — lower, 2.15
- FSDYSMDHFQKFLPTVGGQLGTAG [S4Y] — lower, 1.61
- FSDPSMDHFQKFLPTVGGQLGTAG [S4P] — lower, 2.42
- FSDWSMDHFQKFLPTVGGQLGTAG [S4W] — lower, 2.89
- FSDESMDHFQKFLPTVGGQLGTAG [S4E] — lower, 2.94
- FSDCSMDHFQKFLPTVGGQLGTAG [S4C] — lower, 1.43
- FSDHSMDHFQKFLPTVGGQLGTAG [S4H] — lower, 2.35
